# B1: Ost6p (natural protein, yeast, UniProt Q03723 25-332, looked up)
# chain: TASHNIDDILQLKDDTGVITVTADNYPLLSRGVPGYFNILYITMRGTNSNGMSCQLCHDFEKTYHAVADVIRSQAPQSLNLFFTVDVNEVPQLVKDLKLQNVPHLVVYPPAESNKQSQFEWKTSPFYQYSLVPENAENTLQFGDFLAKILNISITVPQAFNVQEFVYYFVACMVVFIFIKKVILPKVTNKWKLFSMILSLGILLPSITGYKFVEMNAIPFIARDAKNRIMYFSGGSGWQFGIEIFSVSLMYIVMSALSVLLIYVPKISCVSEKMRGLLSSFLACVLFYFFSYFISCYLIKNPGYPIVF
# Molecular target: T1, Stt3p (yeast (endogenous), UniProt P39007 1-718, N-glycan at N539)
# T1 sequence (looked up): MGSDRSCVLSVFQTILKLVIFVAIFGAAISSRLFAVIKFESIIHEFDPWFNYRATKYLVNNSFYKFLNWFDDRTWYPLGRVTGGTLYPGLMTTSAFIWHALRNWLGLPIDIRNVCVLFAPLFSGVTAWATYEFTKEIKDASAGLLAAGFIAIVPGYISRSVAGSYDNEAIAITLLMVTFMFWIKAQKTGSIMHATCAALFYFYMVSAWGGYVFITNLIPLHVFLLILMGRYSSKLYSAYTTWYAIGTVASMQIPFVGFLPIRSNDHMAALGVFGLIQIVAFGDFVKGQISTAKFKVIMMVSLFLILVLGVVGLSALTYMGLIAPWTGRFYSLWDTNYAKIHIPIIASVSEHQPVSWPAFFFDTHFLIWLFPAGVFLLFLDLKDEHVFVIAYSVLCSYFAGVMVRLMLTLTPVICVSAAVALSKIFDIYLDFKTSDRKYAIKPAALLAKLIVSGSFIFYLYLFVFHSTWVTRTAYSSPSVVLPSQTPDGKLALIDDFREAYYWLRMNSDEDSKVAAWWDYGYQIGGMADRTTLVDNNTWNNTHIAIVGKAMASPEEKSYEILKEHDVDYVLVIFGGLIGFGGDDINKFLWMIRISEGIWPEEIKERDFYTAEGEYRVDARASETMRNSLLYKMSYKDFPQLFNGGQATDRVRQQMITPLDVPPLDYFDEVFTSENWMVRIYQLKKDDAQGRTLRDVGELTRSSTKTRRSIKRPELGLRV
# Assay: cryo-EM structure
binder,measurement,value
B1,binding result,binds
